The values below come from US20110158992A1 (SCHERING, published 2011).

Sequences and labels used below:
T1: human IL-23R (human, UniProt Q5VWK5 24-353, limits assumed)
T1 construct: also called huIL-23R; human interleukin-23R
T1 sequence: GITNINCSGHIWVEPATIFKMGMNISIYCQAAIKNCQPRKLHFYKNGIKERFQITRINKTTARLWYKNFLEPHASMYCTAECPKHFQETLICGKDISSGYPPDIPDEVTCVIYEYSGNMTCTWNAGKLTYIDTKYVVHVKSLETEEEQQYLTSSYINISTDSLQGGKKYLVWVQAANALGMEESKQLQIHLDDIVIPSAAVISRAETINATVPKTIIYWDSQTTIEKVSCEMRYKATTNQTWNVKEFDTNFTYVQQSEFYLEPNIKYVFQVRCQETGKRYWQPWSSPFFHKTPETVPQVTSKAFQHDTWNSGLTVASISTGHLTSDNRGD

T2: biotinylated huIL-23R-IgG (human, UniProt Q5VWK5 24-353, biotinylated)
T2 construct: not shown: human IgG1 Fc
T2 sequence: T1 sequence

B1: humanized anti-human IL-23R antibody hu8B10-b (antibody, V domains shown)
VH: QVQLVESGGGVVQPGRSLRLSCAASGFDFNSYGMSWVRQAPGKGLDLVADINSKSYNYATYYADSVKDRFTISRDNSKNTLYLQMNSLRAEDTAVYYCAVHHSDYFEYWGQGTLVTVSS
VL: DIQMTQSPSSLSASVGDRVTITCRASQDIYTNLAWYQQKPGKAPKLLIYHASSLQDGVPSRFSGSGSGTDYTLTISSLQPEDFATYYCLQDSEYPPTFGQGTKVEIKR
B2: chimeric 8B10 Fab, VH H102A (Fab, V domains shown)
VH: EVKLVESGGGLEQPKGSLKLSCTVSGFDFNSYGMSWVRQAPGKGLDLVADINSKSYNYATYYADSVKDRFTISRDDSQSMVYLEMDNLKTEDTALYYCTVHASDYFEYWGQGVMVTVSS
VL: DIQMTQSPASLSASLGETVSIECLASEDIYNNLAWYQQKPGKSPQLLIYHASSLQDGVPSRFSGSGSGTQYSLKINSLESEDAATYFCLQDSEYPPTFGGGTKLELKR
notes: Rat V domains with human CH1 and CL; E. coli periplasmic extract
B3: chimeric 8B10 Fab, VH Y105A (Fab, V domains shown)
VH: B2 VH with A102H, Y105A
VL: B2 VL
notes: as for B2
B4: chimeric 8B10 Fab, VL N31T (Fab, V domains shown)
VH: B2 VH with A102H
VL: B2 VL with N31T
notes: as for B2
B5: chimeric 8B10 Fab, VL Y30A (Fab, V domains shown)
VH: B2 VH with A102H
VL: B2 VL with Y30A
notes: as for B2
B6: chimeric 8B10 Fab, VL S92A (Fab, V domains shown)
VH: B2 VH with A102H
VL: B2 VL with S92A
notes: as for B2
B7: chimeric 8B10 Fab, VH G33A (Fab, V domains shown)
VH: B2 VH with G33A, A102H
VL: B2 VL
notes: as for B2
B8: chimeric 8B10 Fab, VH K54A (Fab, V domains shown)
VH: B2 VH with K54A, A102H
VL: B2 VL
notes: as for B2
B9: chimeric 8B10 Fab, VL S53A (Fab, V domains shown)
VH: B2 VH with A102H
VL: B2 VL with S53A
notes: Rat V domains with human CH1 and CL; E. coli periplasmic extract; also called S53A (light chain variable domain)
B10: chimeric 8B10 Fab, VH I51A (Fab, V domains shown)
VH: B2 VH with I51A, A102H
VL: B2 VL
notes: as for B2
B11: chimeric 8B10 Fab, VL Y49A (Fab, V domains shown)
VH: B2 VH with A102H
VL: B2 VL with Y49A
notes: as for B2
B12: chimeric 8B10 Fab, VL D91A (Fab, V domains shown)
VH: B2 VH with A102H
VL: B2 VL with D91A
notes: as for B2
B13: chimeric 8B10 Fab, VH Y58G (Fab, V domains shown)
VH: B2 VH with Y58G, A102H
VL: B2 VL
notes: as for B2
B14: chimeric 8B10 Fab, VH H101A (Fab, V domains shown)
VH: B2 VH with H101A, A102H
VL: B2 VL
notes: as for B2
B15: chimeric 8B10 Fab, VH A49G (Fab, V domains shown)
VH: B2 VH with A49G, A102H
VL: B2 VL
notes: as for B2
B16: chimeric 8B10 Fab, VH E107A (Fab, V domains shown)
VH: B2 VH with A102H, E107A
VL: B2 VL
notes: as for B2
B17: chimeric 8B10 Fab, VH F106A (Fab, V domains shown)
VH: B2 VH with A102H, F106A
VL: B2 VL
notes: as for B2
B18: chimeric 8B10 Fab, VL E93A (Fab, V domains shown)
VH: B2 VH with A102H
VL: B2 VL with E93A
notes: as for B2
B19: chimeric 8B10 Fab, VL H50A (Fab, V domains shown)
VH: B2 VH with A102H
VL: B2 VL with H50A
notes: as for B2
B20: chimeric 8B10 Fab, VL D28A (Fab, V domains shown)
VH: B2 VH with A102H
VL: B2 VL with D28A
notes: as for B2
B21: chimeric 8B10 Fab, VH Y61A (Fab, V domains shown)
VH: B2 VH with Y61A, A102H
VL: B2 VL
notes: as for B2
B22: chimeric 8B10 Fab, VH S55A (Fab, V domains shown)
VH: B2 VH with S55A, A102H
VL: B2 VL
notes: as for B2
B23: chimeric 8B10 Fab, VH N52A (Fab, V domains shown)
VH: B2 VH with N52A, A102H
VL: B2 VL
notes: as for B2
B24: chimeric 8B10 Fab, VH Y32A (Fab, V domains shown)
VH: B2 VH with Y32A, A102H
VL: B2 VL
notes: as for B2
B25: chimeric 8B10 Fab, VH D50A (Fab, V domains shown)
VH: B2 VH with D50A, A102H
VL: B2 VL
notes: as for B2
B26: chimeric 8B10 Fab, VH R74A (Fab, V domains shown)
VH: B2 VH with R74A, A102H
VL: B2 VL
notes: as for B2
B27: chimeric 8B10 Fab, VH S53A (Fab, V domains shown)
VH: B2 VH with S53A, A102H
VL: B2 VL
notes: Rat V domains with human CH1 and CL; E. coli periplasmic extract; also called S53A (heavy chain variable domain)
B28: chimeric 8B10 Fab, VH S103A (Fab, V domains shown)
VH: B2 VH with A102H, S103A
VL: B2 VL
notes: as for B2
B29: chimeric 8B10 Fab, VH S31A (Fab, V domains shown)
VH: B2 VH with S31A, A102H
VL: B2 VL
notes: as for B2
B30: chimeric 8B10 Fab, VL N32A (Fab, V domains shown)
VH: B2 VH with A102H
VL: B2 VL with N32A
notes: as for B2
B31: chimeric 8B10 Fab, VL N31A (Fab, V domains shown)
VH: B2 VH with A102H
VL: B2 VL with N31A
notes: as for B2
B32: chimeric 8B10 Fab, VH D104A (Fab, V domains shown)
VH: B2 VH with A102H, D104A
VL: B2 VL
notes: as for B2
B33: chimeric 8B10 Fab, VL E27A (Fab, V domains shown)
VH: B2 VH with A102H
VL: B2 VL with E27A
notes: as for B2

What is called Kd is the free concentration of one partner at which half of the binding sites on the other are occupied at equilibrium, for simple one-to-one binding. Lower therefore signals tighter binding.

Residue numbers refer to the chain shown, from its start. Names and notes keep the numbering of the source.

The first experiment addresses T1, human IL-23R. The experiment in a line: BIAcore SPR, antibody immobilised. The procedure:
BIAcore® label-free interaction analysis system determinations are performed essentially as described at Example 4 of U.S. Patent Application Publication No. 2007/0048315, which is hereby incorporated by reference. Briefly, ligands (anti-IL-23R mAbs) are immobilized on a BIAcore® label-free interaction analysis system CM5 sensor chip using standard amine-coupling procedure. Kinetic constants for the various interactions are determined using BIAevaluation software 3.1. The Kd is determined using the calculated dissociation and association rate constants.
Several sequence variants intended to increase the chemical stability of hu8B10-b were produced to evaluate their effects on binding affinity. Kd values are provided at Table 3. Binding to human IL-23R was determined using the BIAcore® label-free interaction analysis system (surface plasmon resonance), essentially as described in Example 4 (supra). Chimeric forms, designated as “chim,” refers to rat variable domains linked to human IgG1 heavy chain and human kappa light chain constant domains, e.g., as presented at SEQ ID NOs: 16 and 17, respectively, or as at SEQ ID NOs: 22 and 23, respectively. Sequences for heavy and light chain variable domains are provided at FIGS. 1 and 2, and in the Sequence Listing (as described at Table 4). Antibodies incorporate the sequence changes recited in the table (“Variant(s)”) for the respective heavy and light chains. Data arc presented as mean±standard deviation for multiple determinations, and without error estimates for single determinations.
In turn, B1 came in with a Kd of 0.154 nM.

For the next experiment, the target named is T2, biotinylated huIL-23R-IgG. The experiment in a line: ECL binding assay, periplasmic Fab extracts, biotinylated huIL-23R-IgG; AUC vs parental 8B10 Fab. The text has this: The N31T change was introduced as a result of affinity maturation experiments, as follows. An E. coli expression vector for expression into the periplasmic space was constructed encoding a chimeric Fab fragment of rat antibody 8B10 comprising rat variable domains, a human constant light chain domain (CL) and a human constant heavy chain domain CH1. Mutations were introduced using a QuikChange® site directed mutagenesis kit (Stratagene Inc., LaJolla, Calif., USA). Primers were designed to replace selected positions with either alanine, or by all 20 amino acids, using the NNK codon approach (N includes an equimolar mix of A/G/C/T and K includes only G/T). To reduce background, alanine mutants at each position were used as the template for the randomization step. Unpurified periplasmic extracts were then tested for human IL-23R binding activity using an electrochemiluminescence assay with biotinylated huIL-23R-IgG and goat anti-huFab-Ori-Tag for detection. The area under the curve was used to compare the binding activity of sequence variants to the original parental 8B10 Fab. Data were fitted using GraphPad Prism® 3.0 software (Graphpad Software inc., San Diego, Calif. USA).
As for B2, the “Binding (% of w.t.)” value is 84.2 % of w.t.

In the case of B3, the “Binding (% of w.t.)” value was 18.3 % of w.t.

For B4, the “Binding (% of w.t.)” value is 129 % of w.t.

On to B5, for which the “Binding (% of w.t.)” value was 3.2 % of w.t.

With B6, the “Binding (% of w.t.)” value is 68.4 % of w.t.

Consider B7, for which the “Binding (% of w.t.)” value was 27.4 % of w.t.

Consider B8, for which the “Binding (% of w.t.)” value was 71.1 % of w.t.

Regarding B9, the “Binding (% of w.t.)” value is 85 % of w.t.

In the case of B10, the “Binding (% of w.t.)” value was 123 % of w.t.

With B11, the “Binding (% of w.t.)” value is 62.4 % of w.t.

With B12, the “Binding (% of w.t.)” value was 5.6 % of w.t.

As to B13, the “Binding (% of w.t.)” value is 53 % of w.t.

With B14, the “Binding (% of w.t.)” value was 29.1 % of w.t.

As for B15, the “Binding (% of w.t.)” value was 79 % of w.t.

Consider B16, for which the “Binding (% of w.t.)” value was 61 % of w.t.

Regarding B17, the “Binding (% of w.t.)” value was 71.1 % of w.t.

As for B18, the “Binding (% of w.t.)” value is 62.8 % of w.t.

In the case of B19, the “Binding (% of w.t.)” value is 62.2 % of w.t.

In the case of B20, the “Binding (% of w.t.)” value is 93.1 % of w.t.

For the molecule B21, the “Binding (% of w.t.)” value was 41.7 % of w.t.

Regarding B22, the “Binding (% of w.t.)” value is 105 % of w.t.

With B23, the “Binding (% of w.t.)” value is 38.7 % of w.t.

For B24, the “Binding (% of w.t.)” value was 76.3 % of w.t.

Regarding B25, the “Binding (% of w.t.)” value was 67.3 % of w.t.

Regarding B26, the “Binding (% of w.t.)” value was 52.6 % of w.t.

Take B27: the “Binding (% of w.t.)” value is 88.7 % of w.t.

Consider B28, for which the “Binding (% of w.t.)” value was 65.7 % of w.t.

Consider B29, for which the “Binding (% of w.t.)” value is 100 % of w.t.

Consider B30, for which the “Binding (% of w.t.)” value is 13.4 % of w.t.

For the molecule B31, the “Binding (% of w.t.)” value was 117 % of w.t.

B32: the “Binding (% of w.t.)” value was 1.5 % of w.t.

Turning to B33, the “Binding (% of w.t.)” value was 96.2 % of w.t.
